# Measurements: US20230248800A1 (PHARMAIN, published 2023)
# B1: Mpa-Tyr-Phe-Hgn-Asn-Cys-Pro-Lys(X)a-Gly-NH2; (X)a = Lauric acid [SEQ ID NO. 27] (peptide)
# peptide: XFXNCPXG
# modifications: Mpa at position 1, disulfide bond between Mpa and Cys; Hgn at position 4; lauric acid on the side chain of Lys 8; C-terminal amide
# B2: Mpa-Tyr-Phe-Hgn-Asn-Cys-Pro-Lys-Gly-NH2 [SEQ ID NO. 25] (peptide)
# peptide: XFXNCPKG
# modifications: Mpa (mercaptopropionic acid) at position 1, disulfide bond between Mpa and Cys; Hgn (homoglutamine) at position 4; C-terminal amide
# B3: Mpa-Tyr-Phe-Hgn-Asn-Cys-Pro-Lys(X)a-Gly-NH2; (X)a = Ac [SEQ ID NO. 28] (peptide)
# peptide: XFXNCPXG
# modifications: Mpa at position 1, disulfide bond between Mpa and Cys; Hgn at position 4; acetyl (Ac) on the side chain of Lys 8; C-terminal amide
# B4: Mpa-Tyr-Phe-Hgn-Asn-Cys-Pro-Lys(X)a-Gly-NH2; (X)a = (Gly)9-Ac [SEQ ID NO. 26] (peptide)
# peptide: XFXNCPXG
# modifications: Mpa at position 1, disulfide bond between Mpa and Cys; Hgn at position 4; (Gly)9-Ac on the side chain of Lys 8; C-terminal amide
# B5: Mpa-Tyr-Phe-Hgn-Asn-Cys-Pro-Lys(X)a-Gly-NH2; (X)a = Dap [SEQ ID NO. 29] (peptide)
# peptide: XFXNCPXG
# modifications: Mpa at position 1, disulfide bond between Mpa and Cys; Hgn at position 4; Dap on the side chain of Lys 8; C-terminal amide
# B6: Mpa-Tyr-Phe-Hgn-Asn-Cys-Pro-dLys-Gly-NH2 (note: dLys = D-Lys) [SEQ ID NO. 18] (peptide)
# peptide: XFXNCPKG
# modifications: Mpa at position 1, disulfide bond between Mpa and Cys; Hgn at position 4; D-Lys at position 8; C-terminal amide
# B7: Mpa-Tyr-Phe-Hgn-Asn-Cys-Pro-Dap-Gly-NH2 [SEQ ID NO. 17] (peptide)
# peptide: XFXNCPXG
# modifications: Mpa at position 1, disulfide bond between Mpa and Cys; Hgn at position 4; Dap at position 8; C-terminal amide
# B8: Mpa-Tyr-Phe-Hgn-Asn-Cys-Pro-Lys(12-aminododecanoic acid)-Gly-NH2 [SEQ ID NO. 19] (peptide)
# peptide: XFXNCPXG
# modifications: Mpa at position 1, disulfide bond between Mpa and Cys; Hgn at position 4; 12-aminododecanoic acid on the side chain of Lys 8; C-terminal amide
# B9: Mpa-Tyr-Phe-Gln-Asn-Cys-Pro-Lys(X)a-Gly-NH2; (X)a = (Gly)9 [SEQ ID NO. 23] (peptide)
# peptide: XFQNCPXG
# modifications: Mpa at position 1, disulfide bond between Mpa and Cys; (Gly)9 on the side chain of Lys 8; C-terminal amide
# B10: Mpa-Tyr-Phe-Gln-Asn-Cys-Pro-Lys(X)a-Gly-NH2; (X)a = (Gly)6 [SEQ ID NO. 20] (peptide)
# peptide: XFQNCPXG
# modifications: Mpa at position 1, disulfide bond between Mpa and Cys; (Gly)6 on the side chain of Lys 8; C-terminal amide
# Target: T1, human V1a receptor (human, UniProt P37288 1-418)
# T1 sequence (P37288 whole entry): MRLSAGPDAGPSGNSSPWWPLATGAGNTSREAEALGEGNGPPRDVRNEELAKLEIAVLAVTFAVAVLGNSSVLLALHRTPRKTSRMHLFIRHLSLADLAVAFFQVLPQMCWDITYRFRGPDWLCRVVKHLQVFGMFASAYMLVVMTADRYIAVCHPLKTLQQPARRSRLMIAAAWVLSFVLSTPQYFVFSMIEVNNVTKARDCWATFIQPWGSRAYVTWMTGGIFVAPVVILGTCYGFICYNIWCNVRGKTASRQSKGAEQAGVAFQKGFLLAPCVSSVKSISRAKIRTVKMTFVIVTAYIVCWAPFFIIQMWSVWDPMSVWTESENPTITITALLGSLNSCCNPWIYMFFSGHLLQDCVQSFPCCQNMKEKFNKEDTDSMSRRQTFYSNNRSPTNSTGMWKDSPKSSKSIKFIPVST
# Assay: cell-based or functional assay
Binder,Estimated V1a EC50 (calcium flux),V1a Highest agonist effect (% of AVP)
B1,> 10000 nM,–
B2,5.2 nM,42.8 % of AVP
B3,> 10000 nM,30 % of AVP
B4,> 10000 nM,40 % of AVP
B5,1340 nM,7.5 % of AVP
B6,> 10000 nM,0.2 % of AVP
B7,> 10000 nM,3.5 % of AVP
B8,> 10000 nM,2.5 % of AVP

# Target: T1, human V1a receptor
# Assay: cell-based or functional assay
# Remark: another data set of the same source
row,Binder,Estimated V1a EC50 (calcium flux)
1,B9,12.6 nM
2,B10,27.3 nM
